Assay results as given in patent US20180021429A1, “ANTICANCER AGENTS OR ANTIMETASTATIC AGENTS USING FSTL1 AND COMBINATION DRUG THEREOF” (PHARMA FOODS INTERNATIONAL CO., LTD., priority 2015, published 2018).

System: GFP-positive and Snail-positive B16-F10 tumor cells
Assay: Snail-positive B16-F10 bone metastasis model, intratumoral administration (Example 17)
Format: in vivo, mouse
Details: intratumoral 10 mg/kg on day 7, assay day 14; FIG. 105A
Text: Three antibodies were comparatively analyzed for their antitumor effects and an immunosuppression-mitigating effect using bone metastasis models in which mouse melanoma cells B16-F10 forced to express Snail were subcutaneously and intravenously transplanted in C57BL/6N mice.
1. Experiment Group (n=5) • 1. No treatment • 2. Control IgG (anti-DNP) • 3. Anti-FSTL1 Clone #6-55 • 4. Anti-FSTL1 Clone #7-34 • 5. Anti-FSTL1 Clone #8-1
• Day 0: transplantation of GFP-positive and Snail-positive B16-F10 tumor cells (5×10^5 cells subcutaneously & 1×10^5 cells intravenously) • Day 7: intratumoral administration of the antibody (200 μg/0.1 mL/tumor) • Day 14: various assays (with a focus on flow cytometry analysis)
• Effects on the growth of subcutaneous tumor (calculation of tumor volume by tumor size measurement): measured 7, 11, and 14 days after tumor implantation (FIG. 105C) • Effects on bone metastasis (GFP-positive tumor cells in bone marrow) (FIG. 105A) • Effects on the expansion of mesenchymal stem cells (CD45− negative cells in bone marrow and in the spleen) (FIGS. 105B and 105D) • Effects on the expansion of immunosuppressive Treg cells (CD4-positive and Foxp3-positive cells in bone marrow or the spleen) (FIG. 105D) • Other immunosuppressive properties (FIG. 105D)
In order to evaluate in vivo antibody activity, antitumor effects and immunosuppression-mitigating effects were comparatively analyzed using bone metastasis models in which mouse melanoma cells (B16-F10) forced to express Snail were subcutaneously and intravenously transplanted in C57BL/6N mice. […]
It is known that when Snail-positive tumor cells are subcutaneously or intravenously transplanted to mice, the tumor metastasizes preferentially to bone marrow in addition to various organs, and this incurs the expansion of mesenchymal stem cells (MSCs) originating in the bone marrow, thereby systemically and strongly suppressing the induction of antitumor immunity (Cancer Research 73: 6185, 2013). […] The percentage (%) of CD45^− cells in the bone marrow cells was analyzed by flow cytometry.

| Molecule | bone metastasis (GFP-positive tumor cells in bone marrow) |
| --- | --- |
| #6-55: chicken-mouse chimeric anti-FSTL1 antibody clone; variable regions SEQ ID NO: 783 (light), 785 (heavy) (antibody, V domains shown, mouse constant regions) VH: AVTLDESGGGLQTPGGALSLVCKGSGFTFTSVTMQWVRQAPGKGLEWVASVCSGSSTYYAPAVKGRATISRDNGQSTVRLQLSNLRPEDTGTYYCAKIAGRARWSCTSAAYNIDAWGHGTEVIVSS VL: ASTQPSSVSAIPGETVKITCSGGGNNYGWYQQRSPGSAPVTVIYYNDNRPSNIPSRFSGSTSGSTSTLTITGVQADDEAIYYCGSWDSNTDSGIFGAGTTLTVL | suppressed |
| #7-34: chicken-mouse chimeric anti-FSTL1 antibody clone; variable regions SEQ ID NO: 787 (light), 789 (heavy) (antibody, V domains shown, mouse constant regions) VH: AVTLDESGGGLQTPGGGLSLVCKASGFTFSSVTMQWVRQAPGKGLEWVASICSGSSTYYGPAVKGRATISRDNGQNTVRLQLNNLRAEDTATYYCAKIVGRGRWSCTSAAYNIDAWGHGTEVIVSS VL: ASTQPSSVSANPGETVKITCSGGGNNYGWYQQKSPGSAPVTVIYYNNNRPSNIPSRFSGSTSGSTSTLTITGVQAEDEAVYYCGSYEGSTDSGIFGAGTTLTVL | no suppressive effect |
| #8-1: chicken-mouse chimeric anti-FSTL1 antibody clone; variable regions SEQ ID NO: 791 (light), 793 (heavy) (antibody, V domains shown, mouse constant regions) VH: AVTLDESGGGLQTPGGALSLVCKGSGFTFSSFNMFWVRQAPGKGLEWVAGIGKDGVPKYGAAVDGRATISKDNGQSTMRLQLNNLRAEDTGTYFCAKAAGGCSYDWCGIYAGDIDTWGHGTEVIVSS VL: ASTQPSSVSANPGEAVKITCSGGSGSYYGWYQQKSPGSAPVTVIYNNNQRPSDIPSRFSGSKSGSTATLTITGVQAEDEAVYFCGGYDSSSGHGGIFGAGTTLTVL | suppressed |
